This note sets out measurements from a protein production outcome set (Wang et al. 2014).
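Also: failed if final PepcDB status was selected cloned or expressed and not failed if soluble or beyond.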

The series in a line: label from the status in PepcDB records.
With “KVVKFSYMWTINNFSFCREEMGEVIKSSTFSSGANDKLKWCLRVNPKGLDEESKDYLSLYLLLVSCPKSEVRAKFKFSILNAKGEETKAMESQRAYRFVQGKDWGFKKFIRRDFLLDEANGLLPDDKLTLFCEVSVVQDSVNISGQ”, the protein production result is recorded as “not failed”.

“HRMDAVEVTLFEKETRVAAHQTGHNSGVVHAGLYYLPGSLKARLCRRGVTLLQQYAENKGVAYEECGKVVVAHDSSEVARMDAIFDRAVANGVPGIRKVAGEEIPEIEPHARGVAAVHSPHTAIIDYVAVAEALAADITAAGGRVLLGREVVGLDSRTAETVVTTGQGSEVFDLVVTCAGLQSDRVALMSGEPRSPRVVPFFGDYFLLEPERSSLVKGLIYPVPDPRYPFLGVHLTKRIDGRIMLGPNAFLSF”: the protein production entry was “failed”.

For “MSDTVLTGLLDTVWQQFGRGTKDRHHPARHPTLATIGTDGPDLRTLVLRAASHAEATLEFHTDAASPKVAHIRRDARVAIHIWIPKASLQVRAKAIAKILPGDPNLFAQLPEAARMNYQGPVPGTPLPAEPDATPNRFTRLICHLSEIDVLHLTTPHQRAVYTAPDWRGIWVSP”, the protein production entry is “not failed”.

On to “MANLFSFLFLGTLGWGMSLYLMKILLVSLTPTEIVLYRMAIGAASLFILAKLFKLKTDNIRGLILDGIIVGTFNMTLPFYLTTYAVKTVSSSLASVINGLTPLCTLILGMVFFSSKQKLGVLNLLSIVLGFIGIIIINSDVSIYQGSAVEFIALLATTISYGVTANYFKYHARTKEPILVSAVSAFVSAITMLIFKCATESSINSWGIPQGMNQIIALLWLGIIGSGFCLYLYCSLIQNAGAVFASMITYLMTITGVIMGMIFLHETISHQVMIGCIFIFFSLILVNHAPLLEKILVSISRQISLKSARRYELNQ”, for which the protein production result is “failed”.

With “MDKLVKYQELVKKLLTNYASDDVSDQDVEVQLILDTERNHYQWMNVGWQGLNRIYRCVIHFDIKDGKIWLQQNLTDRNPAEELVMMGVPREDIVLGLQAPYKRQYTDYGVA”, the protein production entry was “not failed”.

Consider “MDEAYKMRCDWYHHGELVSGGESESKFSQLNDEVVELYQAAEYLDEEFAGMVHLGEIVERDDKKEDEFLAKLADAETPLYPSCFNHSKLSAIMSLFTLKTKNGWSDKSHNDLLETLPEMLLEDNVLHSSLYEVKKFLKSFDMG”, for which the protein production entry was “failed”.

On to “MVHCADQGMARAARDLAGALIASSAVLYNQFDAWSRSHAAALEAVRRGGDTEGEAWLLTGLGQLRYEQDKFEESYAYFADALRLFDERGDVPRGAALSLAGMGSARREQARFAEALQLLSSALERYEQTDDVGARARVLYGIGYVHREQGRGAQAWEALSGALGLYRTASDRHGEALTLRSLALCRRADGAWADAERLLHEALRIFVGLQDTFGVMYTEQSLAKVELRRGHLEKARERLGRCLEVARERQDRFGEALVLRTLGEWCLAAGETERAREPLERALAAWEALDLPLWGARTAWDLAEVSASRATNRRRGQPARRRWRPSARWTAGRRGSARTKACRTR”, for which the protein production entry was “failed”.

For the sequence “MSRTEGSHEAEQDLTMIVGTYTSGDSKGLYSFRFNEENGTATALSEAEVENPSYLVPSADGKFIYAVSEFSNEQAAANAFAFNKEEGTFRLLNTQKTGGEDPCYIITNGSNVVTANYSGGSISVFPIDKDGSLLPASEVVKFKGSGADKERQEKPHLHCVRITPDGKYLFADDLGTDQIHKFIVNPNAKADNEDVFLKEGSPASYKVEAGSGPRHLTFAPNGSYAYLINELSGTVIAFEYNDGELKEIQTIAADTVGAKGSGDIHISPDGKFLYASNRLKADGLAIFSIHPENGMLTKVGYQLTGIHPRNFIITPNGKYLLVACRDSNVIQVYERDTDTGLLTDIRKDIKVDKPVCIKFVPLEHHHHHH”, the protein production result was “not failed”.

For the sequence “MASSDRGTSTLQGWHALQTLWRGDQRSVIQGLPHSQLAPAWQLLLLGDGSPTRHLQLLTGEPTAVDVIEMAPIADQDDGAPPPIRAIAGPRLRRQVWLRTASGQRLAYATSWWTQQRVDAYLRDRAQPIWANLADLRTELYRDIQGVEYGDSAALSEAFGQTGPFWGRYYLFWHQGQPLTLIYEVFSPAIATYLGPSTPQPVV”, the protein production entry was “failed”.

As to “MSLSTARIMLVDDHPIVREGYRRLIERRPGYAVVAEAADAGEAYRLYRETTPDIVVMDLTLPGPGGIEATRHIRQWDGAARILIFTMHQGSAFALKAFEAGASGYVTKSSDPAELVQAIEAILAGRRAMSPDIAQEIAEERVEGREGHHHHHH”, the protein production entry is “not failed”.

Consider “MKSSNIGGQAVMEGIMMRHKDKYAIAVRRPDKEIELKVEDYKCTFGKAAFLKWPIIRGVVSFVDGLVVGTKCLMYSAEIAGDEEDEKEAAKNATLTEEELSAKKAKEAKQFQ”, for which the protein production result is recorded as “not failed”.

As for “MFPQADEPERDTLPGQEEDPLPTGQEQPSITPIAGTEAQYIDIAEWYDSDSILYITDEGENSLVYIYNLLTGEKKSLFSSDDAVIKVTANSTHSQFAIQTVTQAGDAPVSIIDSQGELLMKLEDFGEDFSIFWSPYEEDKLIAVAYLPDWEQDLYLIDTSDKQVEMLDLDQSFVQWLDERTIVYLDWNGDSEGYYAPLYTFDLETEEVVLLHEEAIATLGFGDHVTLIIERPEQGAEVTTYQFWNGSEQLAEWSVPILRTYSEQWWIPFYDFDLNKRLFYAYKPNRTGDYFEYDGGFSFIAFDVDHGEETVLFESDEHVPFRLSPTGQRALFGPRLETVMDLPTGESNSLIELEHHHHHH”, the protein production entry is given as “failed”.

In the case of “DGKVTKVFSSPLMARVQDLSSCAFPAPRISAEKTAAHEVDKDTITYTITVRNSGNLEATGTKFTDNLPGSYVPNSAKLNG”, the protein production result is “failed”.

As for “TFVCASAGNHAQGFAFVCRHFGVPGVVFMPVTTPQQKIDKTRMFGAEFITIRLVGDIFDQCYKAAREHVEAIGGVMVPPFDHDDIIEGQATVAAEIAEQLPAGPVADLVVLPVGGGGLAAGVTGYLGDSLSADRFLFCEPEGAPSFRRSLELGGVVTLDQVDNFVDGAAVARIGDLNFAALRRFSPEQVMLLPENAICLTITEMLNVEGVVLEPAGALAITALEALGRDSLEGKIVVAVVSGGNF”, the protein production result is “failed”.

In the case of “MPKDNEEPLVKIPEFDERKFLFDEKERAKSIVIIFIIGAIVGSISGYFQLIGYWYLSLILILVVLLFSEYILKGLGVQVSKKTSHRILLVGEFLLTWLVFWILVLNPPLNHVSGPEIANLQMYSNNVWTSIVEKNGVYNIPFGSATSGTVSLRVYMFAYSGVVSYKVMAYQSSYAPAVIPSHLNDNYLYFNLTDVHYGSTYYVQVYGSTTVNGSNLTSEVSYTLYAE”, the protein production result is “failed”.

For “MPKSCSASNCTNRYNNKNPEITFHRFPFSKPSVLKQWLDNIGRDDFQPRKHMVICSLHFTPDCFSGLGNRKNLLWNAVPTLFAVPTQDANQNNFRKRLKRALQSASEKWDGITPDGLPLFTEEMHEDTQDCNNNEVADCQSTKVFAAADHTYALSDACTTKARLFNILDANRWLRKRLQAKCRVIKRMKLKLKDAQRELLTLRQQIRHRHVNH”, the protein production result is recorded as “failed”.

Regarding “MTTESAWTRWPSREALGREGLSRPRRMLAWTVRALVLAMLLWGAFSSSHVHGWGAVAAAAGVLLAAGASWAFFRTTLQHRLWPSLALIAVLLGIAIVAQTAGFQVPALVIWCGCAVSALERLPLAAALPVTTAALAAYAAVDNDVWLTTAATIAGLFLAGYVLRLDAEARGSAQRLLAQERAARAAETQSAALAERARIAREIHDVLAHSLSAQLVHLEAARLLIERGADREQILGRVVAARGMAREGLAETRQALSALRGEISPLEDFLSELVAFEDGADVTVSGERRLLTAEASQAVRRVAQEALTNVRKHAPGAKVQVKLEYGERQVTLHVRDSGGKPGDLTGSGAGYGLLGMRERAELLGGSLEAGREEKGFVVTLKVPA”, the protein production entry is “failed”.

In the case of “MKRIFKGHSPWGFLSFRHAENQEPPRYLTGYTPVKRIHKAASMGDIPQVQKLLEFGNIDVNITDRKKRTALHYACAHGQSEMVSLLLWYDCNIEARDREESTALIKATQRQHEICVKILLENGADPNAVDAYHITALHYAVYNNDTAIAAKLLSFNANTEIKTKNGYTPLILAVLENKQEMVELLLRAAANINALDNCKRSALIHAVRIQSKNMISLLLQQGADPSLVDIYGATAQSYAVFETFQVLSQSPGPSCPELTTKEDKQSFDTKDGCIPHSHHIKEDNQEMEENTDDKLGSPAALKHKEKELENCEECNSEADTYPESYSKTSSAQRRSNSEPTEVDDEPSFSTKPPVAQSPMFTESSLWVGYPADWPEPVKFSRQPAVYNPTEWREDMESRSVPREESKQQVAIFPEGKEADVQTQELLSRVFKESGDNDPNLPAIENTKDELVSLLAPLEENKPQMTEFPLIEAAKFQTDVQLDRCPCFLLSLRNSLSGTLD”, the protein production result is listed as “failed”.

With “PVVVSEAGASVYSASEAAAREFPDMDVSLRGAVSIARRLQDPLAELVKIDPKAIGVGQYQHDVNQTALAKTLDAVVEDAVNAVGVDLNTASVPLLARVAGVSPTIAENIVHYRDEHGAFVNRTALKKVPRLGPKAFEQCAGFLRISGGKDPLDASAVHPEAYPVVRKMSEATGLSVEKLIGNSHVLSSLRPSDFA”, the protein production result is listed as “failed”.

With “MPNILYKIDNQYPYFTKNEKKIAQFILNYPHKVVNMTSQEIANQLETSSTSIIRLSKKVTPGGFNELKTRLSKFLPKEVTQYNVELVDNESTISLKNKLHSRSKAALSNANETINVAIIDEICDLIKNSETIFIYGYGASFVVATDLYQKLSRIGLNIQLVHETHIFTTMLATRNSNDCVIFISNNGTQSEMQSIAKVIADYHIPIATISSTSDNPVAKQSNIVLTYGQTDENEMRMGATTSLFAQMFTIDILYYRYIALNYQSSLDFITQSKIALDNYRKHLSNIDFKH”, the protein production result is “failed”.

For the sequence “AHNLALGAHGEDLAARYLTEAGMEIVDRNWRSRYGEVDLIAAEGDWLVFVEVKTRRGLGYGSPAEAVTFSKQRRIRLLAVEWLRDSGRHWSRVRFDVVAIMIGHGPQPQIEHVRD”, the protein production entry is “failed”.

Turning to “MNGIHDVGGMDGFGKVMYVKEEEDIYFTHDWERLALGLVAGCMAQGLGMKAFDEFRIGIELMRPVDYLTSSYYGHWIATVAYNLVDTGVLDEKELDERTEVFSKKPDTKIPRREDPALVKLVEKALNDGLSPLREISASPRFKVGERIKTKNIHPTGHTRFPRYARDKYGVIDEVYGAHVFPDDAAHRKGENPQYLYRVRFEAEELWGYKQKDSVYIDLWESYMEPVSH”, the protein production entry was “not failed”.

In the case of “MNNTPVEPVRLTPDNPLVSVVIRTKDRPKRLAEAVRSVREQTHRPLEVIVVNDGGWPLPEEALKEQAGDVELILIQLEQNQGRSIAANTGLQAATGRYLCFLDDDDRFLPDHIELLSSCLEHIEHRVCYSDAELCWQVYNVETGEFDIVNRQVFGSRDFNLAELLCGNYIPLNTLLFDRQVLLQVGGFDPQFDIYEDWDLLLRVGSLYPFYHLPRVTAQYNQWSKDHQNFYNHFSQTGQAPLLHITGYDRLIEKNRHLFSADAARHLLSVINRLRAIEAELAQRDAVPAESPLTRLTAQLEQTLATIGPSFATLEGRLADLDACQRDALVSATSKLNEGVSDLDGLRSQVAHLCMEFENASGKIDTSQAELQKTATLLVQTQNLLEDYRKEIARTTELNRLISERDSELRTLRQTIARNEAEITALHKERNEANATISALDEKVAHAETEKASLHQIIAQTEARLASVYGSTSWRIAAPLRAVSVAVRWLLRNTRRAFLLMWWLCTGQYARATNHAFPHLWRHVPPRLKMIIPPRLAGSVKRRLHLADITAPRPLENQPDNSHPDTTAEAHVTLDVPERHYVDLSSEPVAHTPIKAIAFYLPQFHTIPENDKWWGEGFTEWTNTRKGKPLFDGHHQPRVPLHLGYYNLENIEVYAQQVQLARKAGLYGFCFYFYWFGGKTLLEKPLLNMLANPQIDQPFCLCWANENWTRRWDGLDDDILIAQHHSEEDAIAFLRYINTYFRDDRYIKIDGKPLLLVYRPSIIPDITHIQEVWRKHATELGWPGIYLVSAQTFGQKDPRDFHFDAAVQFPPQHAAPCAAFHSETPNLADDFEGCVFDYHNVATQFCDSPEVDYKLFRSVTLAWDNSARRGKRATILRNFSLTSYAQWLLTACKATLADHNLTENERLVFINCMERMGRGHLSGAGHQIWLWIPGSHKKGAECILGWKTQAIRNRSKL”, the protein production result was “failed”.
